# Source: patent publication US20150030609A1, “DIAGNOSIS AND TREATMENT OF TRAUMATIC BRAIN INJURY” (UNIVERSITY OF SOUTH FLORIDA, priority 2011, published 2015)
# “Also recorded” adds a separate entry of the source.
# What was measured:
# [1] = tested on: primary oligodendrocyte (OL) cultures; assay: LDH assay of cell death in primary oligodendrocyte cultures exposed to normoxia or OGD with recombinant CCL20; assay type: cell-based, rat
# Description: Mixed glial cultures were prepared from postnatal day 2 rats and oligodendrocytes (OL) cultures were purified using the shaking and differential adherence method as previously described (26). Cell preparations were seeded (1.5×10^7) into flasks, OLs were purified from these preparations after 8 DIV and plated onto glass poly-l-lysine-treated coverslips. Following a 7 day proliferation period, the PDGF-AA was withdrawn for 5 days to induce OL differentiation into the mature phenotype. Experiments were conducted within three weeks.
# Primary cells previously seeded onto glass coverslips were randomly assigned to one of five conditions: OGD (DMEM without glucose)+vehicle, OGD+CCL20 (200 ng; Rad Systems, Minneapolis, Minn.), normoxia (DMEM with glucose) only, normoxia+vehicle, or normoxia+CCL20. Cells undergoing OGD were placed in an airtight hypoxic chamber. The chamber was then flushed with hypoxic gas (95% N2, 4% CO2, 1% O2; Airgas, Tampa, Fla.) for 15 min and […] for the duration of exposure. Normoxic cells were maintained in a standard tissue culture incubator. Cultures were subjected to OGD or normoxia for 24 h at 37° C. The medium from each well was collected, clarified by centrifugation, and lactate dehydrogenase (LDH) analyzed immediately.
# Cell death in culture was determined using the lactate dehydrogenase (LDH) assay (Takara Bio, Inc., Madison, Wis.). Briefly, 100 μl of tissue culture medium from each experimental group was added to a 96-well plate and 100 μl of LDH reagent was added to each well. Plates were incubated for 30 min at 25° C. and absorbances were read on a microplate reader at a 548 nm wavelength. The absorbance of medium only wells was subtracted from the total absorbance of each experimental treatment group to control for background LDH activity.
# Briefly, rat primary neurons or OLs were exposed to normoxia or OGD in the presence of 200 ng recombinant CCL20 or vehicle. Following the exposure, culture medium was collected and the LDH assay was performed to assess cellular death.
# [2] = tested on: primary neuronal cultures; assay: LDH assay of cell death in primary neuronal cultures exposed to normoxia or OGD with recombinant CCL20; assay type: cell-based, rat; settings: 200 ng recombinant CCL20, 24 h
# Description: Cortices from E18 rat embryos were dissociated with a solution of 0.25% trypsin/2.21 mM EDTA for 10 min at 37° C. The solution was triturated to obtain a uniform single cell suspension. After centrifugation, the supernatant was aspirated off and the cells were re-suspended in DMEM (Mediatech, Mannasas, Va.). Trypan blue exclusion was used to count viable cells and 3×10^5 cells in a final volume of 1 mL were seeded on 24 well poly-L-lysine treated culture plates. After 24 h, the medium was changed to neurobasal complete (neurobasal medium (Invitrogen), B-27 (Invitrogen), 0.05 mM L-glutamine (Mediatech) and cells were cultured for 7 days. Cells were used for oxygen glucose deprivation (OGD) experiments following one medium change, as determined by experimental grouping.
# Primary cells previously seeded onto glass coverslips were randomly assigned to one of five conditions: OGD (DMEM without glucose)+vehicle, OGD+CCL20 (200 ng; Rad Systems, Minneapolis, Minn.), normoxia (DMEM with glucose) only, normoxia+vehicle, or normoxia+CCL20. […] The medium from each well was collected, clarified by centrifugation, and lactate dehydrogenase (LDH) analyzed immediately.
# Cell death in culture was determined using the lactate dehydrogenase (LDH) assay (Takara Bio, Inc., Madison, Wis.). […] Plates were incubated for 30 min at 25° C. and absorbances were read on a microplate reader at a 548 nm wavelength. […]
substance,measurement,setting,value
"CCL20: recombinant CC chemokine ligand 20 (CCL20, MIP-3α), purchased chemokine applied at 200 ng to cultured cells",LDH release / cellular toxicity in OL cultures,"[1]; normoxia, 200 ng recombinant CCL20, 24 h, vs normoxia without CCL20",elicited toxicity to OLs; also recorded: increased LDH release
same,LDH release / cell death in OL cultures,"[1]; oxygen glucose deprivation (OGD), 200 ng recombinant CCL20, 24 h, relative to OGD alone",significantly increased; also recorded: further enhanced OGD-induced cellular toxicity
same,toxicity to cultured oligodendrocytes,"[1]; summary statement, conditions not given",toxic to cultured oligodendrocytes
same,LDH release / neuronal viability,[2]; normoxia,did not affect neuronal viability; also recorded: had no effect
same,LDH release / cell death in neurons,"[2]; oxygen glucose deprivation (OGD), relative to OGD alone",significantly increased; also recorded: increased lactate dehydrogenase (LDH) release
